# In patent US10647739B2, “Flavonoids O-A-glucosylated on the B cycle, method for the production thereof and uses” (Institut National de la Recherche Agronomique, priority 2014, dated 2020):
# B1: DSR-S vardelΔ4N S512C: mutant of truncated DSR-S, SEQ ID NO: 10 (protein)
# chain: TQQVSGKYVEKDGSWYYYFDDGKNAKGLSTIDNNIQYFYESGKQAKGQYVTIDNQTYYFDKGSGDELTGLQSIDGNIVAFNDEGQQIFNQYYQSENGTTYYFDDKGHAATGIKNIEGKNYYFDNLGQLKKGFSGVIDGQIMTFDQETGQEVSNTTSEIKEGLTTQNTDYSEHNAAHGTDAEDFENIDGYLTASSWYRPTGILRNGTDWEPSTDTDFRPILSVWWPDKNTQVNYLNYMADLGFISNADSFETGDSQSLLNEASNYVQKSIEMKISAQQSTEWLKDAMAAFIVAQPQWNETSEDMSNDHLQNGALTYVNSPLTPDANSNFRLLNRTPTNQTGEQAYNLDNSKGGFELLLANQEDNSNVVVEAEQLNWLYYLMNFGTITANDADANFDGIRVDAVDNVDADLLQIAADYFKLAYGVDQNDATANQHLSILEDWSHNDPLYVTDQGSNQLTMDDYVHTQLIWSLTKSSDIRGTMQRFVDYYMVDRSNDSTENEAIPNYSFVRAHDCEVQTVIAQIVSDLYPDVENSLAPTTEQLAAAFKVYNEDEKLADKKYTQYNMASAYAMLLTNKDTVPRVYYGDLYTDDGQYMATKSPYYDAINTLLKARVQYVAGGQSMSVDSNDVLTSVRYGKDAMTASDTGTSETRTEGIGVIVSNNAELQLEDGHTVTLHMGAAHKNQAYRALLSTTADGLAYYDTDENAPVAYTDANGDLIFTNESIYGVQNPQVSGYLAVWVPVGAQQDQDARTASDTTTNTSDKVFHSNAALDSQVIYEGFSNFQAFATDSSEYTNVVIAQNADQFKQWGVTSFQLAPQYRSSTDTSFLDSIIQNGYAFTDRYDLGYGTPTKYGTADQLRDAIKALHASGIQAIADWVPDQIYNLPEQELATVTRTNSFGDDDTDSDIDNALYVVQSRGGGQYQEMYGGAFLEELQALYPSLFKVNQISTGVPIDGSVKITEWAAKYFNGSNIQGKGAGYVLKDMGSNKYFKVVSNTEDGDYLPKQLTNDLSETGFTHDDKGIIYYTLSGYRAQNAFIQDDDNNYYYFDKTGHLVTGLQKINNHTYFFLPNGIELVKSFLQNEDGTIVYFDKKGHQVFDQYITDQNGNAYYFDDAGVMLKSGLATIDGHQQYFDQNGVQVKDKFVIGTDGYKYYFEPGSGNLAILRYVQNSKNQWFYFDGNGHAVTGFQTINGKKQYFYNDGHQSKGEFIDADGDTFYTSATDGRLVTGVQKINGITYAFDNTGNLITNQYYQLADGKYMLLDDSGRAKTGFVLQDGVLRYFDQNGEQVKDAIIVDPDTNLS
# modifications: Leuconostoc mesenteroides
# B2: V331A: ASNp amylosucrase single mutant (protein, UniProt Q9ZEU2 1-636, looked up, variant V331A)
# Amylosucrase: MLTPTQQVGLILQYLKTRILDIYTPEQRAGIEKSEDWRQFSRRMDTHFPKLMNELDSVYGNNEALLPMLEMLLAQAWQSYSQRNSSLKDIDIARENNPDWILSNKQVGGVCYVDLFAGDLKGLKDKIPYFQELGLTYLHLMPLFKCPEGKSDGGYAVSSYRDVNPALGTIGDLREVIAALHEAGISAVVDFIFNHTSNEHEWAQRCAAGDPLFDNFYYIFPDRRMPDQYDRTLREIFPDQHPGGFSQLEDGRWVWTTFNSFQWDLNYSNPWVFRAMAGEMLFLANLGVDILRMDAVAFIWKQMGTSCENLPQAHALIRAFNAVMRIAAPAAFFKSEAIVHPDQVVQYIGQDECQIGYNPLQMALLWNTLATREVNLLHQALTYRHNLPEHTAWVNYVRSHDDIGWTFADEDAAYLGISGYDHRQFLNRFFVNRFDGSFARGVPFQYNPSTGDCRVSGTAAALVGLAQDDPHAVDRIKLLYSIALSTGGLPLIYLGDEVGTLNDDDWSQDSNKSDDSRWAHRPRYNEALYAQRNDPSTAAGQIYQGLRHMIAVRQSNPRFDGGRLVTFNTNNKHIIGYIRNNALLAFGNFSEYPQTVTAHTLQAMPFKAHDLIGGKTVSLNQDLTLQPYQVMWLEIA
# B3: V331M: ASNp amylosucrase single mutant (protein, UniProt Q9ZEU2 1-636, looked up, variant V331M)
# Amylosucrase: MLTPTQQVGLILQYLKTRILDIYTPEQRAGIEKSEDWRQFSRRMDTHFPKLMNELDSVYGNNEALLPMLEMLLAQAWQSYSQRNSSLKDIDIARENNPDWILSNKQVGGVCYVDLFAGDLKGLKDKIPYFQELGLTYLHLMPLFKCPEGKSDGGYAVSSYRDVNPALGTIGDLREVIAALHEAGISAVVDFIFNHTSNEHEWAQRCAAGDPLFDNFYYIFPDRRMPDQYDRTLREIFPDQHPGGFSQLEDGRWVWTTFNSFQWDLNYSNPWVFRAMAGEMLFLANLGVDILRMDAVAFIWKQMGTSCENLPQAHALIRAFNAVMRIAAPAMFFKSEAIVHPDQVVQYIGQDECQIGYNPLQMALLWNTLATREVNLLHQALTYRHNLPEHTAWVNYVRSHDDIGWTFADEDAAYLGISGYDHRQFLNRFFVNRFDGSFARGVPFQYNPSTGDCRVSGTAAALVGLAQDDPHAVDRIKLLYSIALSTGGLPLIYLGDEVGTLNDDDWSQDSNKSDDSRWAHRPRYNEALYAQRNDPSTAAGQIYQGLRHMIAVRQSNPRFDGGRLVTFNTNNKHIIGYIRNNALLAFGNFSEYPQTVTAHTLQAMPFKAHDLIGGKTVSLNQDLTLQPYQVMWLEIA
# B4: V331N: ASNp amylosucrase single mutant (protein, UniProt Q9ZEU2 1-636, looked up, variant V331N)
# Amylosucrase: MLTPTQQVGLILQYLKTRILDIYTPEQRAGIEKSEDWRQFSRRMDTHFPKLMNELDSVYGNNEALLPMLEMLLAQAWQSYSQRNSSLKDIDIARENNPDWILSNKQVGGVCYVDLFAGDLKGLKDKIPYFQELGLTYLHLMPLFKCPEGKSDGGYAVSSYRDVNPALGTIGDLREVIAALHEAGISAVVDFIFNHTSNEHEWAQRCAAGDPLFDNFYYIFPDRRMPDQYDRTLREIFPDQHPGGFSQLEDGRWVWTTFNSFQWDLNYSNPWVFRAMAGEMLFLANLGVDILRMDAVAFIWKQMGTSCENLPQAHALIRAFNAVMRIAAPANFFKSEAIVHPDQVVQYIGQDECQIGYNPLQMALLWNTLATREVNLLHQALTYRHNLPEHTAWVNYVRSHDDIGWTFADEDAAYLGISGYDHRQFLNRFFVNRFDGSFARGVPFQYNPSTGDCRVSGTAAALVGLAQDDPHAVDRIKLLYSIALSTGGLPLIYLGDEVGTLNDDDWSQDSNKSDDSRWAHRPRYNEALYAQRNDPSTAAGQIYQGLRHMIAVRQSNPRFDGGRLVTFNTNNKHIIGYIRNNALLAFGNFSEYPQTVTAHTLQAMPFKAHDLIGGKTVSLNQDLTLQPYQVMWLEIA
# B5: V331L: ASNp amylosucrase single mutant (protein, UniProt Q9ZEU2 1-636, looked up, variant V331L)
# Amylosucrase: MLTPTQQVGLILQYLKTRILDIYTPEQRAGIEKSEDWRQFSRRMDTHFPKLMNELDSVYGNNEALLPMLEMLLAQAWQSYSQRNSSLKDIDIARENNPDWILSNKQVGGVCYVDLFAGDLKGLKDKIPYFQELGLTYLHLMPLFKCPEGKSDGGYAVSSYRDVNPALGTIGDLREVIAALHEAGISAVVDFIFNHTSNEHEWAQRCAAGDPLFDNFYYIFPDRRMPDQYDRTLREIFPDQHPGGFSQLEDGRWVWTTFNSFQWDLNYSNPWVFRAMAGEMLFLANLGVDILRMDAVAFIWKQMGTSCENLPQAHALIRAFNAVMRIAAPALFFKSEAIVHPDQVVQYIGQDECQIGYNPLQMALLWNTLATREVNLLHQALTYRHNLPEHTAWVNYVRSHDDIGWTFADEDAAYLGISGYDHRQFLNRFFVNRFDGSFARGVPFQYNPSTGDCRVSGTAAALVGLAQDDPHAVDRIKLLYSIALSTGGLPLIYLGDEVGTLNDDDWSQDSNKSDDSRWAHRPRYNEALYAQRNDPSTAAGQIYQGLRHMIAVRQSNPRFDGGRLVTFNTNNKHIIGYIRNNALLAFGNFSEYPQTVTAHTLQAMPFKAHDLIGGKTVSLNQDLTLQPYQVMWLEIA
# What was measured:
# [1] = apigenin glucosylation acceptor reaction with recombinant glucansucrases (microplate screening); type: biochemical; conditions: sucrose 146 mM, apigenin 2.5 mM, 3% DMSO, 30° C., 24 h, HPLC-UV 340 nm peak areas
# Procedure: (§1) The enzymatic extracts obtained are used to carry out the flavonoid glucosylation enzymatic screening reactions. The enzymatic activity of each centrifuged cell lysate is evaluated in the microplate format, by final weight after 30 minutes incubation in the presence of a final concentration of 146 mM of sucrose, by assaying the reducing sugars with 3,5-dinitrosalicylic acid (DNS). Finally, after dilution in ultrapure water, the absorbance is read at 540 nm.
# (§2) The flavonoid acceptor reactions are then carried out in deep-well microplates, in a volume of 300 μl, at final concentrations of sucrose of 146 mM and of flavonoid of 2.5 mM (apigenin) or 5 mM (naringenin) (initially dissolved in 100% DMSO), and 140 μl of centrifuged cell lysate.
# (§3) The final DMSO concentration in the reaction medium is 3% (v/v).
# (§4) The incubation is carried out at 30° C. and at 700 rpm. After 24 hours, the enzymes are denatured at 95° C. for 15 minutes. These microplates are stored at −80° C. with a view to rapid evaluation of the flavonoid glucosylation by liquid-phase chromatography coupled to mass spectrometry (HPLC-MS or LC-MS).
# (§5) With a view to their analyses by HPLC-MS, the extensively homogenized reaction media are diluted to 1/30th in DMSO. The separation of the flavonoids and of their glucosylated forms is carried out in reverse phase with a ProntoSlL Eurobond® 53×3.0 mm 120-3-C18-AQ column (porosity of 120 Å, particle size of 3 μm, C18 grafting, Bischoff Chromatography, Germany).
# (§6) The flavonoid glucosylation efficiency was determined from the following formula: Glucosylation efficiency=(Σ(area of the peak of glucosylated flavonoid(s)))/(Σ(area of the peak of glucosylated flavonoid(s))+area of the peak of residual aglycone flavonoid)×100
# (§7) The flavonoid glucosylation efficiencies, expressed as a percentage, were calculated from the areas of the peaks of the various products analyzed, as described in example 1, by HPLC with a UV detector (340 nm) after 24 h of reaction.
# [2] = naringenin glucosylation acceptor reaction with recombinant glucansucrases (microplate screening); type: biochemical; conditions: sucrose 146 mM, naringenin 5 mM, 3% DMSO, 30° C., 24 h; HPLC-UV 340 nm peak areas
# Procedure: as §1, §2, §3, §4, §5, §6
# as §7, with “The flavonoid glucosylation efficiency was determined from the formula set out in example 2. The” for “The”, “(λ340 nm),” for “(340 nm)”
Molecule,apigenin glucosylation efficiency [1] [%],apigenin glucosylation efficiency ([1]; listed as S512C) [%],naringenin glucosylation efficiency [2] [%]
B1,13.9,13.9,0.0
B2,0.5,,0.0
B3,0.1,,0.0
B4,1.0,,0.0
B5,0.3,,0.0
